Data: PMC5383521 (Journal of molecular recognition : JMR, 2016)

Tests used:
[1] = biological target: murine monoclonal antibody LA-2, wild type (mouse); experiment: SPR
[2] = biological target: Outer surface protein A (OspA) from Borrelia burgdorferi B31, wild type (Borrelia burgdorferi B31, UniProt P0CL66); experiment: SPR

| Molecule | fold increase of affinity against wild type OspA [1] [fold] | binding result [2] |
| --- | --- | --- |
| OspA (B. burgdorferi B31) A215K (from UniProt P0CL66 17-273) (natural protein) | 7.5 | – |
| murine monoclonal antibody LA-2, wild type (antibody, V domains shown) VH: QIQLVQSGPELKKPGETVKISCKASGYTFTDYSMYWVKQAPGKGLKRMGWINTETGEPTYADDFKGRFALSLDTSASTAYLHISNLKNEDTATYFCARGLDSWGQGTSVTVSS VL: DIQMTQSPSSLSATLGGKVTITCKASQDINKYIAWYQHKPGKGPRLLIHYTSTLQPGNPSRFSGSGSGRDYSFSISNLEAEDIAIYYCLQYDNLQRTFGGGTKVEIK | – | binds |
| LA-2 H49A-Light (antibody, V domains shown) VH: QIQLVQSGPELKKPGETVKISCKASGYTFTDYSMYWVKQAPGKGLKRMGWINTETGEPTYADDFKGRFALSLDTSASTAYLHISNLKNEDTATYFCARGLDSWGQGTSVTVSS VL: DIQMTQSPSSLSATLGGKVTITCKASQDINKYIAWYQHKPGKGPRLLIAYTSTLQPGNPSRFSGSGSGRDYSFSISNLEAEDIAIYYCLQYDNLQRTFGGGTKVEIK | – | no binding |
